Measured values taken from patent publication US20220289850 (published 2022).
Several values for one entry are separate records, joined by “and”; a condition that tells them apart may be missing. Equal entries are not always repeated.

T1: human integrin avb8 (human)
T1 chain 1: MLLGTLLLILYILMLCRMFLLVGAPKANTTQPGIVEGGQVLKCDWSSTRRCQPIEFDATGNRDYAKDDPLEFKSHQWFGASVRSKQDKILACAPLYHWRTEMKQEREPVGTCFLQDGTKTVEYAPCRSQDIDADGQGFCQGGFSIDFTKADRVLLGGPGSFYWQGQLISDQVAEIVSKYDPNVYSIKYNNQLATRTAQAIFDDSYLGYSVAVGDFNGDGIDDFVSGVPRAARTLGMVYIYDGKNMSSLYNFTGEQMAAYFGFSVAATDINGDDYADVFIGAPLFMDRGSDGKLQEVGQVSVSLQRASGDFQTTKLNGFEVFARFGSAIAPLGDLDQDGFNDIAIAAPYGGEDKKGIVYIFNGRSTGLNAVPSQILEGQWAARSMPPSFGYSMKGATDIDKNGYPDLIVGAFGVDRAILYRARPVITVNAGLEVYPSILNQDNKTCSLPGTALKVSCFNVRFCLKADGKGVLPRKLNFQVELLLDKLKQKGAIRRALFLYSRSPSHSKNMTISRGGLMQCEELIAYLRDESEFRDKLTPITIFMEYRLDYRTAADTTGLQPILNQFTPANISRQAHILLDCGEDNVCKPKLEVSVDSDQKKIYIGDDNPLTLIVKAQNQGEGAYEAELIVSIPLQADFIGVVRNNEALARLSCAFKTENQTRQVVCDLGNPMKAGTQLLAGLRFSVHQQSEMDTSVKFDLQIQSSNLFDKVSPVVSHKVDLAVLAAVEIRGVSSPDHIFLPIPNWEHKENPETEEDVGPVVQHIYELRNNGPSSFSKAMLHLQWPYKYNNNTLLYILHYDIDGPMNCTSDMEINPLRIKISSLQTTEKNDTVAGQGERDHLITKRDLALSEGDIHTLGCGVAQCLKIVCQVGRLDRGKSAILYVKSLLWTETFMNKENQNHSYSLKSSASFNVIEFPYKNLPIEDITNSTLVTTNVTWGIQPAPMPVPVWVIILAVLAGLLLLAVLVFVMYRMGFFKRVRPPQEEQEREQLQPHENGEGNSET
T1 chain 2: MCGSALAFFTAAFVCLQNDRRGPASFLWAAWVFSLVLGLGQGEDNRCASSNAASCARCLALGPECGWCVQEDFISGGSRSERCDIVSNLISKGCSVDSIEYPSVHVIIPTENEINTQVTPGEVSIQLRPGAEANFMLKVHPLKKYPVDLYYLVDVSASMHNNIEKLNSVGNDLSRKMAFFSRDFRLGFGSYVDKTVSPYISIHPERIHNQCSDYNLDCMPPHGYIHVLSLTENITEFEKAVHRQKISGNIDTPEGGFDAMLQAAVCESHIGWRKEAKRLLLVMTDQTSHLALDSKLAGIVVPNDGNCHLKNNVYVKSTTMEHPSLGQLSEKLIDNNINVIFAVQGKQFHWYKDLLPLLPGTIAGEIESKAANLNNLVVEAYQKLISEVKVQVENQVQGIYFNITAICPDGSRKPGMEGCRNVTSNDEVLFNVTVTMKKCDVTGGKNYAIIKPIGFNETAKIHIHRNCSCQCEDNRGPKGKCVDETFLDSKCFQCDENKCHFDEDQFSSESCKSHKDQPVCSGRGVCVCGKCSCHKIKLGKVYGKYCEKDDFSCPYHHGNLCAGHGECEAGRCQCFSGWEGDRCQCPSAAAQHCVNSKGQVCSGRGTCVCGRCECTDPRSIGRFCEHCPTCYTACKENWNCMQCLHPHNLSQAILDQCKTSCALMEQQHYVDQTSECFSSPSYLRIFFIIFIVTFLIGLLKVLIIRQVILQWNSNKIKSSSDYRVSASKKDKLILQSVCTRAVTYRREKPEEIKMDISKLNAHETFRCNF


Columns and labels:
[1] = biological target: T1, human integrin avb8; assay: FACS U251 cells
[2] = biological target: T1, human integrin avb8; assay: SPR

Row | EC50 [1] | Kd [2] | Binder
1 | 0.256 nM and 0.126 nM |  | ADWA11 2.4 IgG (antibody) chain 1: EVQLVESGGGLVQPGGSLRLSCAASGFNIKDYYMNWVRQAPGKGLEWVGWIDPDQGNTIYEPKFQGRFTISADTSKNSAYLQMNSLRAEDTAVYYCARRLLMDYWGQGTLVTVSSASTKGPSVFPLAPSSKSTSGGTAALGCLVKDYFPEPVTVSWNSGALTSGVHTFPAVLQSSGLYSLSSVVTVPSSSLGTQTYICNVNHKPSNTKVDKKVEPKSCDKTHTCPPCPAPEAAGAPSVFLFPPKPKDTLMISRTPEVTCVVVDVSHEDPEVKFNWYVDGVEVHNAKTKPREEQYNSTYRVVSVLTVLHQDWLNGKEYKCKVSNKALPAPIEKTISKAKGQPREPQVYTLPPSREEMTKNQVSLTCLVKGFYPSDIAVEWESNGQPENNYKTTPPVLDSDGSFFLYSKLTVDKSRWQQGNVFSCSVMHEALHNHYTQKSLSLSPGK chain 2: DIQMTQSPSSLSASVGDRVTITCRSTKSLSHFNGNTYLFWYQQKPGKAPKRLIYYMSSLASGVPSRFSGSGSGTDFTLTISSLQPEDFATYYCQQSLEYPFTFGGGTKVEIKRTVAAPSVFIFPPSDEQLKSGTASVVCLLNNFYPREAKVQWKVDNALQSGNSQESVTEQDSKDSTYSLSSTLTLSKADYEKHKVYACEVTHQGLSSPVTKSFNRGEC
2 |  | < 0.1 nM | ADWA11 2.4 Fab (antibody, V domains shown) VH: EVQLVESGGGLVQPGGSLRLSCAASGFNIKDYYMNWVRQAPGKGLEWVGWIDPDQGNTIYEPKFQGRFTISADTSKNSAYLQMNSLRAEDTAVYYCARRLLMDYWGQGTLVTVSS VL: DIQMTQSPSSLSASVGDRVTITCRSTKSLSHFNGNTYLFWYQQKPGKAPKRLIYYMSSLASGVPSRFSGSGSGTDFTLTISSLQPEDFATYYCQQSLEYPFTFGGGTKVEIK
